# Source: US9187525B2, “Methods of treating ophthalmic diseases using NPR-B agonists” (Shire Orphan Therapies GmbH, dated 2015)
# Numbered stars: 1 amine (or outer) side, 2 acyl side, 3 side chain; on linkers, the order of the positions; unused ones are H or OH. Square brackets hold non-standard residues; d marks the D form. Ends that are not written are not given here. * marks the point of attachment. Pro(trans-4-NH2) = O=C([C@@H]1C[C@@H](N[*:3])CN1[*:1])[*:2]; Sni = (S)-nipecotic acid, O=C([C@H]1CCCN([*:1])C1)[*:2]; Bmf = rac-2-amino-3-phenyl-butyric acid; Gly(cPent) = N[C@H](C(=O)O)C1CCCC1; Hyp = O=C(O)[C@@H]1C[C@@H](O)CN1; dAoc(2) = CCCCCC[C@@H](N)C(=O)O; AR‑314‑145 = not defined here; AR‑314‑169 = not defined here; AR‑314‑170 = not defined here; AR‑314‑171 = not defined here; AR‑314‑172 = not defined here; AR‑385‑008 = not defined here; Aoc(2) = CCCCCC[C@H](N)C(=O)O; NMeL = CN[C@@H](CC(C)C)C(=O)O; Phg = N[C@H](C(=O)O)c1ccccc1; orn(Me2) = not defined here; Octanoyl = CCCCCCCC(=O)*; 1270 = not defined here; 1888 = not defined here; Adx = not defined here; Az3 = not defined here; Che = not defined here; Oct = not defined here; aze = not defined here; leu = not defined here; thz = not defined here; Occ = octanoic acid
# T1: natriuretic peptide receptor-B (human)
# T1 chain: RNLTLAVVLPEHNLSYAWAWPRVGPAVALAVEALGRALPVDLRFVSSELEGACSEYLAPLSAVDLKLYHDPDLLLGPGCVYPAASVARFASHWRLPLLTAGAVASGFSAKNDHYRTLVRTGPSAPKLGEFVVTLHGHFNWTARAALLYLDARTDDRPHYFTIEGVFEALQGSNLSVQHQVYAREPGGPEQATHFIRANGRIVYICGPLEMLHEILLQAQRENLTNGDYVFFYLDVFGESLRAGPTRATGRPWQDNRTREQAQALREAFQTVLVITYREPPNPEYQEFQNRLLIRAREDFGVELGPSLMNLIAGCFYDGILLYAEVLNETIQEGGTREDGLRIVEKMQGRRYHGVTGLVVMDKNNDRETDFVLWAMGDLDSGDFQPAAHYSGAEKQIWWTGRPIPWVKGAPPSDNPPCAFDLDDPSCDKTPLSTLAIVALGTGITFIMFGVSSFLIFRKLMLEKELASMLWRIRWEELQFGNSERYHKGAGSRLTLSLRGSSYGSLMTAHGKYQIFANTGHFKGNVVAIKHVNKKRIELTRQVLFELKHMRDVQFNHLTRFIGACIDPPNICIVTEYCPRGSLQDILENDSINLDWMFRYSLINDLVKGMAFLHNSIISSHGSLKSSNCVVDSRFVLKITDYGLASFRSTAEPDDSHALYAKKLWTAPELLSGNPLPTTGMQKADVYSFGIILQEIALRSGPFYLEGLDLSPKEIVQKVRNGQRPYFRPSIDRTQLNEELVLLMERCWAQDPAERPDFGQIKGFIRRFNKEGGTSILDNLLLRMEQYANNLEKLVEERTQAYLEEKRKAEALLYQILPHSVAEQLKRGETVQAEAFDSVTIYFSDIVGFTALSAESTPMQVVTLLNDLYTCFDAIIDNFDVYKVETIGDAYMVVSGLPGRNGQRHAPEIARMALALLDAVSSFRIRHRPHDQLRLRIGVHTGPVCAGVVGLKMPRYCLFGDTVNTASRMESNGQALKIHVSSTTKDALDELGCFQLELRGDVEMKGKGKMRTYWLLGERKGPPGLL
# B1: JAL-1851 (peptide)
# peptide: [Oct][Sni]F[orn(Me2)]L[Hyp][NMeL]VR[Che]
# modifications: reading uncertain; also: printed as Oct-Sni-Phe-orn(Me2)-Leu-Hyp-Nml-Val-Arg-Che
# B2: JAL-1838 (peptide)
# peptide: H-[Adx][dAoc(2)][Sni]F[leu]L[Hyp][NMeL]DRI-NH2
# modifications: reading uncertain; also: printed as H-Adx-hgl-Sni-Phe-leu-Leu-Hyp-Nml-Asp-Arg-Ile-NH2
# B3: JAL-1873 (peptide)
# peptide: [AR‑385‑008][leu]L[Hyp][NMeL]DRI-NH2
# modifications: reading uncertain; also: printed as (AR-385-008)-leu-Leu-Hyp-Nml-Asp-Arg-Ile-NH2
# B4: JAL-1847 (peptide)
# peptide: [Oct][Sni]F[orn(Me2)]L[Hyp][NMeL]VP[Che]
# modifications: reading uncertain; also: printed as Oct-Sni-Phe-orn(Me2)-Leu-Hyp-Nml-Val-Pro-Che
# B5: JAL-1858 (peptide)
# peptide: [Occ][Sni]F[leu]L[Hyp][NMeL][Phg]RI-NH2
# modifications: reading uncertain; also: printed as Occ-Sni-Phe-leu-Leu-Hyp-Nml-Phg-Arg-Ile-NH2
# B6: JAL-1857 (peptide)
# peptide: [Occ][Sni]F[leu]L[Hyp][NMeL][Bmf]RI-NH2
# modifications: reading uncertain; also: printed as Occ-Sni-Phe-leu-Leu-Hyp-Nml-Bmf-Arg-Ile-NH2
# B7: JAL-1868-2 (peptide)
# peptide: [AR‑314‑169]F[leu]L[Hyp][NMeL]DRI-NH2
# modifications: reading uncertain; also: printed as (AR-314-169)-Phe-leu-Leu-Hyp-Nml-Asp-Arg-Ile-NH2
# B8: JAL-0740 (peptide)
# peptide: Octanoyl-[aze]FGLKLDRI-NH2
# modifications: reading uncertain; also: printed as Occ-aze-Phe-Gly-Leu-Lys-Leu-Asp-Arg-Ile-NH2
# B9: JAL-1845 (peptide)
# peptide: [Occ][Sni]F[orn(Me2)]L[Hyp][NMeL]VP[Che]
# modifications: reading uncertain; also: printed as Occ-Sni-Phe-orn(Me2)-Leu-Hyp-Nml-Val-Pro-Che
# B10: JAL-1848 (peptide)
# peptide: [Oct][Sni]F[leu]L[Hyp][NMeL]VR[Che]
# modifications: reading uncertain; also: printed as Oct-Sni-Phe-leu-Leu-Hyp-Nml-Val-Arg-Che
# B11: JAL-1846 (peptide)
# peptide: [Occ][Sni]F[orn(Me2)]L[Pro(trans-4-NH2)][NMeL]VP[Che]
# modifications: reading uncertain; also: printed as Occ-Sni-Phe-orn(Me2)-Leu-Tap-Nml-Val-Pro-Che
# B12: JAL-1869-2 (peptide)
# peptide: [AR‑314‑170]F[leu]L[Hyp][NMeL]DRI-NH2
# modifications: reading uncertain; also: printed as (AR-314-170)-Phe-leu-Leu-Hyp-Nml-Asp-Arg-Ile-NH2
# B13: JAL-1805 (peptide)
# peptide: 1270-[Aoc(2)][Sni]FLL[Hyp][NMeL]DRI-NH2
# modifications: not fully specified (some residues); printed as (1270)-Hgl-Sni-Phe-leu-Leu-Hyp-Nml-Asp-Arg-Ile-NH2; reading uncertain
# B14: JAL-1850 (peptide)
# peptide: [Occ][Sni]F[orn(Me2)]L[Pro(trans-4-NH2)][NMeL]VR[Che]
# modifications: reading uncertain; also: printed as Occ-Sni-Phe-orn(Me2)-Leu-Tap-Nml-Val-Arg-Che
# B15: JAL-1870-2 (peptide)
# peptide: [AR‑314‑171]F[leu]L[Hyp][NMeL]DRI-NH2
# modifications: reading uncertain; also: printed as (AR-314-171)-Phe-leu-Leu-Hyp-Nml-Asp-Arg-Ile-NH2
# B16: JAL-1874 (peptide)
# peptide: [AR‑314‑172][leu]L[Hyp][NMeL]DRI-NH2
# modifications: reading uncertain; also: printed as (AR-314-172)-leu-Leu-Hyp-Nml-Asp-Arg-Ile-NH2
# B17: JAL-1859 (peptide)
# peptide: [Occ][Sni]F[leu]L[Hyp][NMeL][Gly(cPent)]RI-NH2
# modifications: reading uncertain; also: printed as Occ-Sni-Phe-leu-Leu-Hyp-Nml-Cpg-Arg-Ile-NH2
# B18: JAL-0739 (peptide)
# peptide: Octanoyl-[thz]FGLKLDRI-NH2
# modifications: reading uncertain; also: printed as Occ-thz-Phe-Gly-Leu-Lys-Leu-Asp-Arg-Ile-NH2
# B19: JAL-1864 (peptide)
# peptide: [Occ][Sni]F[leu]L[Hyp][NMeL][AR‑314‑145]RI-NH2
# modifications: reading uncertain; also: printed as Occ-Sni-Phe-leu-Leu-Hyp-Nml-(AR-314-145)-Arg-Ile-NH2
# B20: JAL-1849 (peptide)
# peptide: [Oct][Sni]F[leu]L[Pro(trans-4-NH2)][NMeL]VR[Che]
# modifications: reading uncertain; also: printed as Oct-Sni-Phe-leu-Leu-Tap-Nml-Val-Arg-Che
# B21: JAL-1807 (peptide)
# peptide: Octanoyl-[Aoc(2)][Sni]FLL[Hyp][NMeL]DRI-NH2
# modifications: not fully specified (some residues); printed as Occ-Hgl-Sni-Phe-leu-Leu-Hyp-Nml-Asp-Arg-Ile-NH2
# B22: JAL-1806 (peptide)
# peptide: 1888-[Aoc(2)][Sni]FLL[Hyp][NMeL]DRI-NH2
# modifications: not fully specified (some residues); printed as (1888)-Hgl-Sni-Phe-leu-Leu-Hyp-Nml-Asp-Arg-Ile-NH2; reading uncertain
# B23: JAL-1843 (peptide)
# peptide: [Oct][Sni]F[leu]L[Pro(trans-4-NH2)][NMeL]DR[Che]
# modifications: reading uncertain; also: printed as Oct-Sni-Phe-leu-Leu-Tap-Nml-Asp-Arg-Che
# B24: JAL-1844 (peptide)
# peptide: [Oct][Sni]F[leu]L[Pro(trans-4-NH2)][NMeL]VP[Che]
# modifications: reading uncertain; also: printed as Oct-Sni-Phe-leu-Leu-Tap-Nml-Val-Pro-Che
# B25: JAL-0742 (peptide)
# peptide: [Occ][Az3]FGLKLDRI-NH2
# modifications: reading uncertain; also: printed as Occ-Az3-Phe-Gly-Leu-Lys-Leu-Asp-Arg-Ile-NH2
# B26: JAL-1837 (peptide)
# peptide: 1888-[dAoc(2)][Sni]FLL[Hyp][NMeL]DRI-NH2
# modifications: not fully specified (some residues); printed as 1888-hgl-Sni-Phe-leu-Leu-Hyp-Nml-Asp-Arg-Ile-NH2; reading uncertain
# B27: JAL-1808 (peptide)
# peptide: H-[Adx][Aoc(2)][Sni]FLL[Hyp][NMeL]DRI-NH2
# modifications: not fully specified (residue 5); printed as H-Adx-Hgl-Sni-Phe-leu-Leu-Hyp-Nml-Asp-Arg-Ile-NH2; reading uncertain
# Target: T1, natriuretic peptide receptor-B
# Test: cell-based or functional assay
row,Binder,"EC50 group, cGMP in GTM-3 cells [µM]"
1,B1,≤ 5
2,B2,≤ 5
3,B3,≤ 15
4,B4,≤ 15
5,B5,≤ 15
6,B6,≤ 15
7,B7,≤ 5
8,B8,≤ 15
9,B9,≤ 5
10,B10,≤ 5
11,B11,≤ 5
12,B12,≤ 15
13,B13,≤ 15
14,B14,≤ 1
15,B15,≤ 15
16,B16,≤ 5
17,B17,≤ 5
18,B18,≤ 15
19,B19,≤ 15
20,B20,≤ 5
21,B21,≤ 15
22,B22,≤ 5
23,B23,≤ 1
24,B24,≤ 5
25,B25,≤ 15
26,B26,≤ 5
27,B27,≤ 1
